Source: PMC6182161 (Nucleic Acids Research, 2018)

T1: Flag-NAT10 GE (UniProt Q9H0A0 1-1025, G641E)
T1 sequence (looked up): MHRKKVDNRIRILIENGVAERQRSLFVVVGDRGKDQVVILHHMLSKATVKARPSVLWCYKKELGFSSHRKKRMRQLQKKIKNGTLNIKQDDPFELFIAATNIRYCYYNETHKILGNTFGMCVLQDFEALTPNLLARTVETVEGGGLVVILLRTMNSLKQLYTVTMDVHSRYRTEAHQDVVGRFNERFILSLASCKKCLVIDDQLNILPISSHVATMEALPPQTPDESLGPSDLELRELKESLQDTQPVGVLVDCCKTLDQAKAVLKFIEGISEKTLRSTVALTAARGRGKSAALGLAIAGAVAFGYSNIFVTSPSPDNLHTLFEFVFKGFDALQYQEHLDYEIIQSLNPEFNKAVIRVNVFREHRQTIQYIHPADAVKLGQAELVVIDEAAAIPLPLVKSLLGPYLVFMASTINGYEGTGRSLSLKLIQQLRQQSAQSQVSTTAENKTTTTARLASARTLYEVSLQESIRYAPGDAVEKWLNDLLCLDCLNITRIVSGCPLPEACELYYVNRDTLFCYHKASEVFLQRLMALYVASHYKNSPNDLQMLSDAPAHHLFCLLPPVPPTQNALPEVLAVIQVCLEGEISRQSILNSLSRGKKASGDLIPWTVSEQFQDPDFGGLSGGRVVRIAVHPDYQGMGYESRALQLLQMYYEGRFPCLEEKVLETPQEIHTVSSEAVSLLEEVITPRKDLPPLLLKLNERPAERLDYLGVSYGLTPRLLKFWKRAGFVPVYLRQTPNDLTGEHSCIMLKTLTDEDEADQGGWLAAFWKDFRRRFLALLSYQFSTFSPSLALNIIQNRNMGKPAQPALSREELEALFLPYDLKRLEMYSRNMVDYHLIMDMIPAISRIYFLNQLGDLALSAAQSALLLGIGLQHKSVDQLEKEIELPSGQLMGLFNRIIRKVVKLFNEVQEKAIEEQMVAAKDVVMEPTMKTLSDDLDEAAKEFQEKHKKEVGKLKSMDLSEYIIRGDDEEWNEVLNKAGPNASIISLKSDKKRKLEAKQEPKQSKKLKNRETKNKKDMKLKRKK

T2: purified Flag-NAT10 (UniProt Q9H0A0 1-1025)
T2 sequence (looked up): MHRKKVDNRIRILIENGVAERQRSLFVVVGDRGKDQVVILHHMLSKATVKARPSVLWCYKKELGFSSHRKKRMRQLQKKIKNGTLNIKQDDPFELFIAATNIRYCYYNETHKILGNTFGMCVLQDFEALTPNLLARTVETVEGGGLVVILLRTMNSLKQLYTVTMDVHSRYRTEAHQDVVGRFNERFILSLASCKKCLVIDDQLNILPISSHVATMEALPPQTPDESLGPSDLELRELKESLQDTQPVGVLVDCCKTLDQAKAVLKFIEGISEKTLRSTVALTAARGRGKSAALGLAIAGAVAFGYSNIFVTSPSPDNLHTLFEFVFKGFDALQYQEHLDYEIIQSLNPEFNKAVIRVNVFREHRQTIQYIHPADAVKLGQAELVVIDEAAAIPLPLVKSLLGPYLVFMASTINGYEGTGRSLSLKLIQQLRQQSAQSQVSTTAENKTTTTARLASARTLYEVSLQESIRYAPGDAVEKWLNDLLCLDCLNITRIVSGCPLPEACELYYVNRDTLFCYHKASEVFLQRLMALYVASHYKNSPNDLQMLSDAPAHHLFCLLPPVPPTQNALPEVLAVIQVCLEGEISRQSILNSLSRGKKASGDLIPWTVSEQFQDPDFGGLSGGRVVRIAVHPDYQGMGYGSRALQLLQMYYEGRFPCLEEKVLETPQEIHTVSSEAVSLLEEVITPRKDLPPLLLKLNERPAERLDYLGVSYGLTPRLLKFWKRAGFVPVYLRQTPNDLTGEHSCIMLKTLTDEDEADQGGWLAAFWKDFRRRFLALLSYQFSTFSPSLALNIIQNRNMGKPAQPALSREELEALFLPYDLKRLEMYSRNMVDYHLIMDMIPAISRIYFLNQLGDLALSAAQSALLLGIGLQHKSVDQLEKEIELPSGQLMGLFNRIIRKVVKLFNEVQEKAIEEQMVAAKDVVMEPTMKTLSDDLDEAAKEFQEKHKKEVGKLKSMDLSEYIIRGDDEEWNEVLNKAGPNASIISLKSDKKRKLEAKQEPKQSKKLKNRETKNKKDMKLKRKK


Columns and labels:
Flag-NAT10 GE = target: T1, Flag-NAT10 GE; experiment: pull-down
purified Flag-NAT10 = target: T2, purified Flag-NAT10; experiment: pull-down

Row | binding result (Flag-NAT10 GE) | binding result (purified Flag-NAT10) | Binder
1 | binds | binds | GST-Che-1 (natural protein, UniProt Q9NY61 1-560, looked up) MAGPQPLALQLEQLLNPRPSEADPEADPEEATAARVIDRFDEGEDGEGDFLVVGSIRKLASASLLDTDKRYCGKTTSRKAWNEDHWEQTLPGSSDEEISDEEGSGDEDSEGLGLEEYDEDDLGAAEEQECGDHRESKKSRSHSAKTPGFSVQSISDFEKFTKGMDDLGSSEEEEDEESGMEEGDDAEDSQGESEEDRAGDRNSEDDGVVMTFSSVKVSEEVEKGRAVKNQIALWDQLLEGRIKLQKALLTTNQLPQPDVFPLFKDKGGPEFSSALKNSHKALKALLRSLVGLQEELLFQYPDTRYLVDGTKPNAGSEEISSEDDELVEEKKQQRRRVPAKRKLEMEDYPSFMAKRFADFTVYRNRTLQKWHDKTKLASGKLGKGFGAFERSILTQIDHILMDKERLLRRTQTKRSVYRVLGKPEPAAQPVPESLPGEPEILPQAPANAHLKDLDEEIFDDDDFYHQLLRELIERKTSSLDPNDQVAMGRQWLAIQKLRSKIHKKVDRKASKGRKLRFHVLSKLLSFMAPIDHTTMNDDARTELYRSLFGQLHPPDEGHGD
2 | – | binds | GST-Sirt1 (enzyme, UniProt Q96EB6 1-747, looked up) MADEAALALQPGGSPSAAGADREAASSPAGEPLRKRPRRDGPGLERSPGEPGGAAPEREVPAAARGCPGAAAAALWREAEAEAAAAGGEQEAQATAAAGEGDNGPGLQGPSREPPLADNLYDEDDDDEGEEEEEAAAAAIGYRDNLLFGDEIITNGFHSCESDEEDRASHASSSDWTPRPRIGPYTFVQQHLMIGTDPRTILKDLLPETIPPPELDDMTLWQIVINILSEPPKRKKRKDINTIEDAVKLLQECKKIIVLTGAGVSVSCGIPDFRSRDGIYARLAVDFPDLPDPQAMFDIEYFRKDPRPFFKFAKEIYPGQFQPSLCHKFIALSDKEGKLLRNYTQNIDTLEQVAGIQRIIQCHGSFATASCLICKYKVDCEAVRGDIFNQVVPRCPRCPADEPLAIMKPEIVFFGENLPEQFHRAMKYDKDEVDLLIVIGSSLKVRPVALIPSSIPHEVPQILINREPLPHLHFDVELLGDCDVIINELCHRLGGEYAKLCCNPVKLSEITEKPPRTQKELAYLSELPPTPLHVSEDSSSPERTSPPDSSVIVTLLDQAAKSNDDLDVSESKGCMEEKPQEVQTSRNVESIAEQMENPDLKNVGSSTGEKNERTSVAGTVRKCWPNRVAKEQISRRLDGNQYLFLPPNRYIFHGAEVYSDSEDDVLSSSSCGSNSDSGTCQSPSLEEPMEDESEIEEFYNGLEDEPDVPERAGGAGFGTDGDDQEAINEAISVKQEVTDMNYPSNKS

Continued, binder first:

Row | Binder | binding result (Flag-NAT10 GE) | binding result (purified Flag-NAT10)
3 | GST-Che-1-N (domain or fragment, UniProt Q9NY61 1-124, looked up) MAGPQPLALQLEQLLNPRPSEADPEADPEEATAARVIDRFDEGEDGEGDFLVVGSIRKLASASLLDTDKRYCGKTTSRKAWNEDHWEQTLPGSSDEEISDEEGSGDEDSEGLGLEEYDEDDLGA | – | binds
4 | GST-Che-1-M (domain or fragment, UniProt Q9NY61 125-246, looked up) AEEQECGDHRESKKSRSHSAKTPGFSVQSISDFEKFTKGMDDLGSSEEEEDEESGMEEGDDAEDSQGESEEDRAGDRNSEDDGVVMTFSSVKVSEEVEKGRAVKNQIALWDQLLEGRIKLQK | – | binds
